Laboratory results published in the supplement of paper PMC10567573.

B1: ZNF232 (parent)
chain: HSGEKPFICKECGKAYGWCSELIR

Variants of: B1
Test: protein stability index of a GFP-peptide fusion (GPS, HEK-293T) (PSI 1-6); higher = more stable
Settings: c terminus: a fixed tail appended
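Also: lentivirally expressed fusions sorted by FACS into six bins by GFP to DsRed ratio, PSI derived from sequencing read proportions per bin multiplied by bin number.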

Q: For HSGEKPFICKECGKAYGSCSELIR [W18S], which protein stability index is on record?
A: 2.67

Q: Which protein stability index does the source give for HSGEKPFICKECGHAYGWCSELIR [K14H] here?
A: 1.61

Q: Which protein stability index does the source give for HSGEKPFICKECGSAYGWCSELIR [K14S] here?
A: 1.7

Q: Which protein stability index does the source give for HSGEKPFICKECGMAYGWCSELIR [K14M] here?
A: 1.96

Q: Which protein stability index does the source give for HSGEKPFICKECGRAYGWCSELIR [K14R] here?
A: 1.61

Q: For HSGEKPFICKECGAAYGWCSELIR [K14A], which protein stability index is on record?
A: 2.39

Q: For HSGEKPFICKECGLAYGWCSELIR [K14L], which protein stability index is on record?
A: 1.44

Q: For HSGEKPFICKECGDAYGWCSELIR [K14D], which protein stability index is on record?
A: 2.01

Q: For HSGEKPFICKECGQAYGWCSELIR [K14Q], which protein stability index is on record?
A: 1.87

Q: Which protein stability index does the source give for HSGEKPFICKECGYAYGWCSELIR [K14Y] here?
A: 1.98

Q: For HSGEKPFICKECGFAYGWCSELIR [K14F], which protein stability index is on record?
A: 2.02

Q: Which protein stability index does the source give for HSGEKPFICKECGGAYGWCSELIR [K14G] here?
A: 2.8

Q: Which protein stability index does the source give for HSGEKPFICKECGEAYGWCSELIR [K14E] here?
A: 1.61

Q: For HSGEKPFICKECGWAYGWCSELIR [K14W], which protein stability index is on record?
A: 2.68

Q: With HSGEKPFICKECGPAYGWCSELIR [K14P] as the variant, how does the protein stability index read?
A: 1.53

Q: For HSGEKPFICKECGTAYGWCSELIR [K14T], which protein stability index is on record?
A: 2.24

Q: Which protein stability index does the source give for HSGEKPFICKECGNAYGWCSELIR [K14N] here?
A: 1.67

Q: Which protein stability index does the source give for HSGEKPFICKECGVAYGWCSELIR [K14V] here?
A: 1.71

Q: For HSGEKPFICKECGIAYGWCSELIR [K14I], which protein stability index is on record?
A: 2.04

Q: Which protein stability index does the source give for HSGEKPFICKECGCAYGWCSELIR [K14C] here?
A: 2.73

Q: Which protein stability index does the source give for HSGEKPFICKECGKAYGWCGELIR [S20G] here?
A: 1.96

Q: Which protein stability index does the source give for HSGEKPFICKECGKAYGWCDELIR [S20D] here?
A: 1.72

Q: Which protein stability index does the source give for HSGEKPFICKECGKAYGWCFELIR [S20F] here?
A: 2.11

Q: With HSGEKPFICKECGKAYGWCNELIR [S20N] as the variant, how does the protein stability index read?
A: 2.1

Q: With HSGEKPFICKECGKAYGWCEELIR [S20E] as the variant, how does the protein stability index read?
A: 2.07

Q: With HSGEKPFICKECGKAYGWCRELIR [S20R] as the variant, how does the protein stability index read?
A: 3.24

Q: With HSGEKPFICKECGKAYGWCQELIR [S20Q] as the variant, how does the protein stability index read?
A: 1.98

Q: For HSGEKPFICKECGKAYGWCVELIR [S20V], which protein stability index is on record?
A: 2

Q: Which protein stability index does the source give for HSGEKPFICKECGKAYGWCWELIR [S20W] here?
A: 1.77

Q: Which protein stability index does the source give for HSGEKPFICKECGKAYGWCHELIR [S20H] here?
A: 2.33

Q: With HSGEKPFICKECGKAYGWCMELIR [S20M] as the variant, how does the protein stability index read?
A: 1.75

Q: Which protein stability index does the source give for HSGEKPFICKECGKAYGWCIELIR [S20I] here?
A: 2.17

Q: For HSGEKPFICKECGKAYGWCCELIR [S20C], which protein stability index is on record?
A: 2.96

Q: Which protein stability index does the source give for HSGEKPFICKECGKAYGWCPELIR [S20P] here?
A: 1.87

Q: Which protein stability index does the source give for HSGEKPFICKECGKAYGWCYELIR [S20Y] here?
A: 1.7

Q: For HSGEKPFICKECGKAYGWCTELIR [S20T], which protein stability index is on record?
A: 2.11

Q: With HSGEKPFICKECGKAYGWCLELIR [S20L] as the variant, how does the protein stability index read?
A: 1.39

Q: With HSGEKPFICKECGKAYGWCAELIR [S20A] as the variant, how does the protein stability index read?
A: 2.34

Q: Which protein stability index does the source give for HSGEKPFICKECGKAYGWCKELIR [S20K] here?
A: 2.2

Q: For HSGEKPFICKECGKAGGWCSELIR [Y16G], which protein stability index is on record?
A: 1.93

Q: With HSGEKPFICKECGKAFGWCSELIR [Y16F] as the variant, how does the protein stability index read?
A: 1.6

Q: For HSGEKPFICKECGKAKGWCSELIR [Y16K], which protein stability index is on record?
A: 2.11

Q: Which protein stability index does the source give for HSGEKPFICKECGKAHGWCSELIR [Y16H] here?
A: 3.04

Q: Which protein stability index does the source give for HSGEKPFICKECGKAWGWCSELIR [Y16W] here?
A: 2.1

Q: Which protein stability index does the source give for HSGEKPFICKECGKAEGWCSELIR [Y16E] here?
A: 1.75

Q: Which protein stability index does the source give for HSGEKPFICKECGKADGWCSELIR [Y16D] here?
A: 2.16

Q: Which protein stability index does the source give for HSGEKPFICKECGKAVGWCSELIR [Y16V] here?
A: 1.54

Q: Which protein stability index does the source give for HSGEKPFICKECGKAIGWCSELIR [Y16I] here?
A: 2.06

Q: With HSGEKPFICKECGKAAGWCSELIR [Y16A] as the variant, how does the protein stability index read?
A: 1.58

Q: With HSGEKPFICKECGKAPGWCSELIR [Y16P] as the variant, how does the protein stability index read?
A: 1.61

Q: Which protein stability index does the source give for HSGEKPFICKECGKANGWCSELIR [Y16N] here?
A: 1.88

Q: With HSGEKPFICKECGKAMGWCSELIR [Y16M] as the variant, how does the protein stability index read?
A: 1.94

Q: Which protein stability index does the source give for HSGEKPFICKECGKAQGWCSELIR [Y16Q] here?
A: 2.33

Q: For HSGEKPFICKECGKACGWCSELIR [Y16C], which protein stability index is on record?
A: 2.5

Q: With HSGEKPFICKECGKARGWCSELIR [Y16R] as the variant, how does the protein stability index read?
A: 2.06

Q: With HSGEKPFICKECGKALGWCSELIR [Y16L] as the variant, how does the protein stability index read?
A: 1.25

Q: With HSGEKPFICKECGKATGWCSELIR [Y16T] as the variant, how does the protein stability index read?
A: 2.49

Q: For HSGEKPFICKECGKASGWCSELIR [Y16S], which protein stability index is on record?
A: 1.99

Q: With HSGEKPFICKECGKAYNWCSELIR [G17N] as the variant, how does the protein stability index read?
A: 1.38

Q: For HSGEKPFICKECGKAYAWCSELIR [G17A], which protein stability index is on record?
A: 1.84

Q: Which protein stability index does the source give for HSGEKPFICKECGKAYMWCSELIR [G17M] here?
A: 2.2

Q: Which protein stability index does the source give for HSGEKPFICKECGKAYTWCSELIR [G17T] here?
A: 1.56

Q: Which protein stability index does the source give for HSGEKPFICKECGKAYQWCSELIR [G17Q] here?
A: 2.2

Q: Which protein stability index does the source give for HSGEKPFICKECGKAYFWCSELIR [G17F] here?
A: 1.97

Q: For HSGEKPFICKECGKAYHWCSELIR [G17H], which protein stability index is on record?
A: 2.09

Q: For HSGEKPFICKECGKAYLWCSELIR [G17L], which protein stability index is on record?
A: 1.82

Q: Which protein stability index does the source give for HSGEKPFICKECGKAYVWCSELIR [G17V] here?
A: 1.52

Q: Which protein stability index does the source give for HSGEKPFICKECGKAYRWCSELIR [G17R] here?
A: 1.65

Q: For HSGEKPFICKECGKAYWWCSELIR [G17W], which protein stability index is on record?
A: 2.2

Q: For HSGEKPFICKECGKAYSWCSELIR [G17S], which protein stability index is on record?
A: 1.8

Q: With HSGEKPFICKECGKAYCWCSELIR [G17C] as the variant, how does the protein stability index read?
A: 3.39

Q: With HSGEKPFICKECGKAYDWCSELIR [G17D] as the variant, how does the protein stability index read?
A: 2.2

Q: Which protein stability index does the source give for HSGEKPFICKECGKAYIWCSELIR [G17I] here?
A: 2.51

Q: With HSGEKPFICKECGKAYKWCSELIR [G17K] as the variant, how does the protein stability index read?
A: 1.6

Q: With HSGEKPFICKECGKAYPWCSELIR [G17P] as the variant, how does the protein stability index read?
A: 2.54

Q: With HSGEKPFICKECGKAYYWCSELIR [G17Y] as the variant, how does the protein stability index read?
A: 2.24

Q: With HSGEKPFICKECGKAYEWCSELIR [G17E] as the variant, how does the protein stability index read?
A: 1.82

Q: With HSGEKPFICKECVKAYGWCSELIR [G13V] as the variant, how does the protein stability index read?
A: 2.39

Q: Which protein stability index does the source give for HSGEKPFICKECRKAYGWCSELIR [G13R] here?
A: 1.7

Q: For HSGEKPFICKECWKAYGWCSELIR [G13W], which protein stability index is on record?
A: 1.53

Q: With HSGEKPFICKECQKAYGWCSELIR [G13Q] as the variant, how does the protein stability index read?
A: 1.44

Q: For HSGEKPFICKECYKAYGWCSELIR [G13Y], which protein stability index is on record?
A: 2.12

Q: For HSGEKPFICKECSKAYGWCSELIR [G13S], which protein stability index is on record?
A: 1.88

Q: For HSGEKPFICKECNKAYGWCSELIR [G13N], which protein stability index is on record?
A: 2.1

Q: For HSGEKPFICKECMKAYGWCSELIR [G13M], which protein stability index is on record?
A: 1.89

Q: Which protein stability index does the source give for HSGEKPFICKECPKAYGWCSELIR [G13P] here?
A: 1.65

Q: For HSGEKPFICKECTKAYGWCSELIR [G13T], which protein stability index is on record?
A: 1.65

Q: Which protein stability index does the source give for HSGEKPFICKECGKAYGWCSELAR [I23A] here?
A: 2.04

Q: With HSGEKPFICKECGKAYGWCSELCR [I23C] as the variant, how does the protein stability index read?
A: 3.64

Q: Which protein stability index does the source give for HSGEKPFICKECGKAYGWCSELGR [I23G] here?
A: 2.09

Q: Which protein stability index does the source give for HSGEKPFICKECGKAYGWCSELHR [I23H] here?
A: 2.71

Q: Which protein stability index does the source give for HSGEKPFICKECGKAYGWCSELER [I23E] here?
A: 2.24

Q: For HSGEKPFICKECGKAYGWCSELDR [I23D], which protein stability index is on record?
A: 2.5

Q: With HSGEKPFICKECGKAYGWCSELFR [I23F] as the variant, how does the protein stability index read?
A: 1.98
